Laboratory results: paper PMC2831313 (Nucleic Acids Research, 2009)

Target: N-biotinylated HapB (Aspergillus nidulans, biotin (N-biotinylated))
Test: SPR

B1: HapC/HapE heterodimer (wild-type HapC) (complex)
chain 1: MSSTSPSKEPEVEQEPQSGEEHEQMDKEQDNQTQGQGEFEVKEQDRWLPIANVARIMKLALPENAKIAKEAKECMQECVSEFISFITSEASEKCQQEKRKTVNGEDILFAMTSLGFENYAEALKIYLSKYRETQSARGEHQNRPPSSGYAGGGPVGGAASGPSVVRAGGAAAGGAFPEASDNAGSIMNQGLDPSEQDASAYGYPPMVGQGHNGAGGESY
chain 2: MEQAQQTSGQQQGRQQPVYDTRQGGHYGASAALAAQGFAPVAELYTGTWANVNQGLQGTARDILTTYWQHVINHLESDNHDYKIHQLPLARIKKVMKADPEVKMISAEAPILFAKGCDVFITELTMRAWIHAEDNKRRTLQRSDIAAALSKSDMFDFLIDIVPREEATSHAKRSSQSAGAPAGPGGPTAAGQLPQTQHGVQHHPHHMAPPDYGALGQHPLQDQEYRQQTMYGGAVQSDPTAAYAQPQTQMFEGMYTAYPHLPPQQ
  Kd: 35.3 nM
